What all share (assay): cell-based or functional assay
The target of experiment [1] is native JAM-A on CAL27 cells (UniProt Q9Y624).
Experiment [2] addresses anti-CD19 chimeric antigen receptor on anti-CD19 CAR-T cells.
The target in experiment [3] is mock CAR-T cells (CAR-T not able to recognize CD19).

We go through two substances from patent US20230121248A1.

UniProt Q9Y624, sequence (Q9Y624 28-299 limits assumed): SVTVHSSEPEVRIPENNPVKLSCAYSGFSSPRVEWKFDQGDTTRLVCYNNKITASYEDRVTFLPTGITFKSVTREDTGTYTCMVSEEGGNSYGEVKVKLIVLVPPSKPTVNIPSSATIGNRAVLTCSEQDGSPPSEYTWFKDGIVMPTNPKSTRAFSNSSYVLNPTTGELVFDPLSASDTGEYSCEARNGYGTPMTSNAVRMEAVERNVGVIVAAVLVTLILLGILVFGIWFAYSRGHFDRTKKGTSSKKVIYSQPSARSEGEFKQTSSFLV

As for “soluble JAM-A protein (extracellular domain of JAM-A fused with MBP) (from UniProt Q9Y624 28-238)”, the proliferation of CAL27 cells (ATPlite, ratio to untreated control), 1 uM soluble JAM-A in experiment [1] turned out to be 1.24.

Take “CM19XA (CD19-GS linker-JAM-A-pHLIP fusion protein with N-terminal 6xHis tag)”: in experiment [2], the proliferation (ATP fold of control) of A549 cells 72 h after the anti-CD19 CAR-T killing assay, 1 uM CM19XA amounted to 0.74 fold and the proliferation (ATP fold of control) of CAL27 cells 72 h after the anti-CD19 CAR-T killing assay, 1 uM CM19XA is 0.72 fold. In experiment [3], this substance showed a proliferation (ATP fold of control) of A549 cells 72 h after the mock CAR-T killing assay, 1 uM CM19XA of 1.03 fold and a proliferation (ATP fold of control) of CAL27 cells 72 h after the mock CAR-T killing assay, 1 uM CM19XA of 1.01 fold.
